Data as given in paper PMC11094138, “The NTE domain of PTENα/β promotes cancer progression by interacting with WDR5 via its SSSRRSS motif” (Cell Death & Disease, 2024).

Assays:
WDR5^22–334 [1] = biological target: T1, WDR5^22–334 (human, UniProt P61964 22-334); assay: ITC; WDR5 (50 µM) in the cell, peptide or protein (750 µM) in the syringe, 20 injections; 25 °C; 20 mM Tris-HCl pH 7.5, 150 mM NaCl; single-site model; iTC-200; details: both partners purified
WDR5^22–334 [2] = biological target: T1, WDR5^22–334; assay: ITC; competitive: PTENα-NTE^116–148 or PTENα-NTE^1–173 titrated into a 1:1 molar mixture of WDR5^22–334 and H3 1–15; 25 °C; 20 mM Tris-HCl pH 7.5, 150 mM NaCl; details: both partners purified

B1: PTENα-NTE^116–148 peptide (peptide)
peptide: SSRRSSHYPAAVQSQAAAERGASATAKSRAISI
notes: PTENα (PTEN-L), the N-terminally extended variant of human PTEN (576 residues); residues 116–148 of its N-terminal extension; also called synthetic PTENα-NTE^116–148 peptide; source: synthetic peptide
How did the Kd (WDR5^22–334 [1]) turn out when B1 was run?
The Kd was 3.8 µM.

What about the “Kd against a 1:1 mixture of WDR5^22–334 and H3 1–15” value (WDR5^22–334 [2]) of the same binder?
The value was 32 ± 3 µM.

B2: MLL1 WIN motif MLL1^3762–3772 (peptide)
peptide: GSARAEVHLRK
notes: source: lyophilized peptide (Shanghai Apeptide or GL Biochem)
Does B2 bind (WDR5^22–334 [1])?
Result: binds

B3: MLL1^3762–3772_A3764R (peptide)
peptide: GSRRAEVHLRK
notes: as for B2
Does B3 bind (WDR5^22–334 [1])?
Result: binds
